B1: reverse orientation triple mutant FP999 (K H39 Q, F H82B S, N H91 Y, bL-L49-sFv orientation) (scFv)
chain: TPVSEKQLAEVVANTITPLMKAQSVPGMAVAVIYQGKPHYYTFGKADIAANKPVTPQTLFELGSISKTFTGVLGGDAIARGEISLDDAVTRYWPQLTGKQWQGIRMLDLATYTAGGLPLQVPDEVTDNASLLRFYQNWQPQWKPGTTRLYANASIGLFGALAVKPSGMPYEQAMTTRVLKPLKLDHTWINVPKAEEAHYAWGYRDGKAVRVSPGMLDAQAYGVKTNVQDMANWVMANMAPENVADASLKQGIALAQSRYWRIGSMYQGLGWEMLNWPVEANTVVETSFGNVALAPLPVAEVNPPAPPVKASWVHKTGSTGGFGSYVAFIPEKQIGIVMLANTSYPNPARVEAAYHILEALQMHGTKLMEVQLQESGPSLVKPSQTLSLTCSVTGDSITSGYWNWIRQFPGNKLEYMGYISDSGITYYNPSLKSRISITRDTSKNQYYLQLNSVTAEDTATYYCARRTLATYYAMDYWGQGTSVTVSSGSTSGSGKPGSGEGSTKGDFVMTQTPLSLPVSLGDQASISCRASQSLVHSNGNTYLHWYLQKPGQSPKLLIYRVSNRFSGVPDRFSGSGSGTDFTLKISRVEAEDLGVYFCSQSTHVPPTFGGGTKLEIKR
notes: also called bL-L49-scFv
B2: L49-sFv-bL triple mutant FP990 (K H39 Q, F H82B S, N H91 Y) (scFv)
scFv: MEVQLQESGPSLVKPSQTLSLTCSVTGDSITSGYWNWIRQFPGNKLEYMGYISDSGITYYNPSLKSRISITRDTSKNQYYLQLNSVTAEDTATYYCARRTLATYYAMDYWGQGTSVTVSSGSTSGSGKPGSGEGSTKGDFVMTQTPLSLPVSLGDQASISCRASQSLVHSNGNTYLHWYLQKPGQSPKLLIYRVSNRFSGVPDRFSGSGSGTDFTLKISRVEAEDLGVYFCSQSTHVPPTFGGGTKLEIKRTPVSEKQLAEVVANTITPLMKAQSVPGMAVAVIYQGKPHYYTFGKADIAANKPVTPQTLFELGSISKTFTGVLGGDAIARGEISLDDAVTRYWPQLTGKQWQGIRMLDLATYTAGGLPLQVPDEVTDNASLLRFYQNWQPQWKPGTTRLYANASIGLFGALAVKPSGMPYEQAMTTRVLKPLKLDHTWINVPKAEEAHYAWGYRDGKAVRVSPGMLDAQAYGVKTNVQDMANWVMANMAPENVADASLKQGIALAQSRYWRIGSMYQGLGWEMLNWPVEANTVVETSFGNVALAPLPVAEVNPPAPPVKASWVHKTGSTGGFGSYVAFIPEKQIGIVMLANTSYPNPARVEAAYHILEALQ

Tests used:
[1] = target: T1, soluble p97 (amino acids 20-710 of human p97 precursor), 6x his tag (human, UniProt P08582 20-710); assay: SPR, Biacore 2000, 25 C; p97 immobilised on CM5 chip, scFv fusion injected; 1:1 model
T1 construct: range 20-710; also called p97 melanotransferrin; recombinant p97; not shown: 6x his tag from vector pSecTag2
T1 sequence: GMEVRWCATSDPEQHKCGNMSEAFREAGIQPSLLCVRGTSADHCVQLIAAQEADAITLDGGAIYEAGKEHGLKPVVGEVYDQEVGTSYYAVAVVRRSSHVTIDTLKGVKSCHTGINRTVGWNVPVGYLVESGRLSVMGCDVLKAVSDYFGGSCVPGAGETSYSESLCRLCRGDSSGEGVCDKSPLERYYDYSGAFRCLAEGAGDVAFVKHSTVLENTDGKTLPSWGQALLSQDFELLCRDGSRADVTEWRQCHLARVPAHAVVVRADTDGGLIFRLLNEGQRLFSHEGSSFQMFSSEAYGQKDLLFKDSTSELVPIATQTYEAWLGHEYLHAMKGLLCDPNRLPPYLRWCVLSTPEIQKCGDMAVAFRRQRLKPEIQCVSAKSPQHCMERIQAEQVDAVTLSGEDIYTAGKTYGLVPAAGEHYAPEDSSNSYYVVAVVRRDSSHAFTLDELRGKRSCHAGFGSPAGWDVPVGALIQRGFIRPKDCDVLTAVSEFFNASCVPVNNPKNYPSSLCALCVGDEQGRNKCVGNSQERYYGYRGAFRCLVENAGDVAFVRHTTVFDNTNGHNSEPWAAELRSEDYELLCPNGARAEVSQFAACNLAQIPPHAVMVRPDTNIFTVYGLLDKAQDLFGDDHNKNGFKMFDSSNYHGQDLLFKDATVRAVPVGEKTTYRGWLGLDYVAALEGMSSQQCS

[2] = target: T2, p97 antigen on human melanoma H3677 cells (human, UniProt P08582 20-709); assay: cell-based or functional assay
T2 sequence: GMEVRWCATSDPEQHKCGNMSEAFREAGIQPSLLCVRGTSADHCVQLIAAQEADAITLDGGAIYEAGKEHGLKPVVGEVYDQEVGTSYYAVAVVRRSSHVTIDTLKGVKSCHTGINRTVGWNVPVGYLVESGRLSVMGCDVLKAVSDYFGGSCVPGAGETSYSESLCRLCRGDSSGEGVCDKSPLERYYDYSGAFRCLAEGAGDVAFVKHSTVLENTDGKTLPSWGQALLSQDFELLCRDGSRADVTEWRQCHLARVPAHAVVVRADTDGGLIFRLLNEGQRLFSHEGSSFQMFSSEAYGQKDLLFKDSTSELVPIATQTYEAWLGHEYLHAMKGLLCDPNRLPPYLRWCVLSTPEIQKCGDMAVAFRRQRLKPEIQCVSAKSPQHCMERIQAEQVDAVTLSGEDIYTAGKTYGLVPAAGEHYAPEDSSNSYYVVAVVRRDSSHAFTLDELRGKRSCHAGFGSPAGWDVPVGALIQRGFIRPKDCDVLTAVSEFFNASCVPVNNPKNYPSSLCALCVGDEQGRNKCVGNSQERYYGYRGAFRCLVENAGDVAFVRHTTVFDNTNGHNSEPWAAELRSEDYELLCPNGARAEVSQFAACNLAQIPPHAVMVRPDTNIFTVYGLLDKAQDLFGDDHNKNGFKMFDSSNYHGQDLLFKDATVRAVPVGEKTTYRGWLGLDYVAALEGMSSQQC

[3] = target: T1, soluble p97 (amino acids 20-710 of …); assay: SEC binding assay with purified p97 (discussion of the example)

Row | Binder | Kd [1] | koff [1] | kon [1] | IC50 of prodrug C-Mel on H3677 melanoma cells pre-treated with 10 nM fusion protein, unbound material washed off; cell viability by alamarBlue [2] | percent of purified protein bound to antigen [3]
1 | B1 | 1.71 nM | 0.000575 s⁻¹ | 337000 M⁻¹ s⁻¹ | 5000 nM | 
2 | B2 | 1.75 nM | 0.000782 s⁻¹ | 448000 M⁻¹ s⁻¹ | 5000 nM | 100%
